Reference: patent US20210040194A1

Key:
Test in all cases: cell-based or functional assay
cyno Ang2 (cyno) = target: cyno Ang2 (cyno)
mouse Ang2 (mouse) = mouse Ang2 (mouse) (UniProt O35608)
[1] = target: Human ANG-2 (huAng2) (human) (UniProt O15123)
Chain of Human ANG-2 (huAng2) (human) (O15123 19-496 limits assumed): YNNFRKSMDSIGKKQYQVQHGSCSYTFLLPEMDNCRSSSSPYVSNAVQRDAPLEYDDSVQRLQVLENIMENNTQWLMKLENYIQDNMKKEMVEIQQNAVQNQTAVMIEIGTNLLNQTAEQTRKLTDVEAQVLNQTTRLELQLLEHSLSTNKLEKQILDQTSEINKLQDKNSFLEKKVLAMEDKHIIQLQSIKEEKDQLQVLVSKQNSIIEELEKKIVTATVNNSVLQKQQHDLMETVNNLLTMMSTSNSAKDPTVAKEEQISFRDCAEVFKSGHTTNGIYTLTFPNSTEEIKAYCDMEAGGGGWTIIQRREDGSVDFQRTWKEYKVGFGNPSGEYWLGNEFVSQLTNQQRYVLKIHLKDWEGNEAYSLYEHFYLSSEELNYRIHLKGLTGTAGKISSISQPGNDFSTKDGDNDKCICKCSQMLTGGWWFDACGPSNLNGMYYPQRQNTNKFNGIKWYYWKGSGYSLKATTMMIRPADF

Chain of mouse Ang2 (mouse) (O35608 19-496 limits assumed): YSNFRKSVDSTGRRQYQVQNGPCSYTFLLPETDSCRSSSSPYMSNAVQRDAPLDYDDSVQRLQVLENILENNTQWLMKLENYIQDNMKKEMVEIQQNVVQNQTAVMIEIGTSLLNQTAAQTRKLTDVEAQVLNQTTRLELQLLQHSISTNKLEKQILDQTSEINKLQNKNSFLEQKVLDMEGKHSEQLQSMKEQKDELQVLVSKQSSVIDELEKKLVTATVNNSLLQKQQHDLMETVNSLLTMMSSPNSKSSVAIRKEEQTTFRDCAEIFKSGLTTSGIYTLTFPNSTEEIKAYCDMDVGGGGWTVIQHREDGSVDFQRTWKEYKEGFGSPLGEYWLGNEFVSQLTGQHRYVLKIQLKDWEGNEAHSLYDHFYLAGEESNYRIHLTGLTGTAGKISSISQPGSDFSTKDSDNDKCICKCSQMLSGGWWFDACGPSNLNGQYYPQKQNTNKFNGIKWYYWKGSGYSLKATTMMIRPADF

MEDI3617 (antibody)
Cyno pTie2 EC50 (nM) (cyno Ang2 (cyno)): 33.2 nM
Mu pTie2 EC50 (nM) (mouse Ang2 (mouse)): 137 nM
Hu pTie2 EC50 (nM), Hek293-Tie2 cells [1]: 2.65 nM
